Measured values published in the DeepSol protein solubility set.

Test: soluble on expression in E. coli; label from the status in PepcDB or PDB records

Row | Sequence | soluble on expression in E. coli
1 | MAHHHHHHMGLKRLAKAAKITSKHMLLLNRREPYKPVTSDRVMIENRRRLEDFEAKNAEGIVFVPDTALPPWQKSIATNLKQQATQMNFRGFRVRVADKQDEPGFPTHFR | soluble
2 | MAHHHHHHMGNTNSSADRSNADDRGVHSEFMYRYETTKKLKLSYMMLKKNVATAVMTMEVTPQHLRDVGTGYSNVCACLKHGGSGGTNSCIQGQAAGREQASISRSRIDREFADESYKGFQTFCEAMDDIKAGVCVTSRTAIHERITVELDRMVLTAERVLKQGRKTMRSMAHFTKVARQVSRRERAAVDQGKDLSSSKRYAKAVKERNEKESLYKTELEAFDQLYEHVMVVSQEFCSSTTDIFLDCIVGYYREIVATIDVSDTPQCSRLQSRFRSREREVVLHQASDAGFCAMPAGHMDGSKSLSSTVPLKWD | soluble
3 | MAHHHHHHMGRLEIRVCGARNVANVQRVGKPDPYVKVKLGNSKKSQIKYKTHVAENCLNPVWNELFKFQVADYDSMQVVFELWNDNVIVDDLLGSYSLSLNGLTRGVVIDTWVLLEGTKGSSSELHLRVLAVDFGRDPGPGDRLTLSLEGDTMMPSTGQTYRPPKNYVPPTQGIVLQSYPPAPLGPPPPVVYSPSAAPRPQVQYGYVTPPQPQRYACGAPPPPPQQPPSQGYGYGAVQAPQNYSYGAPPPPQPMYGAPQLPQCLPYAAGPPPPQMYGPPPPQRRPVQMAYGIPPDM | not soluble
4 | MAHHHHHHMGSKHPRGSTSAPAHEEEQQAHVDTEHHTEPPSFTAGPEVAEMQVTVTPTMPPTSMEQASMTVSGEGPSTLAVPKQQHLRHKSFTMTEVQQLISVNPDRTLVIIRDKVYDVTTFLASHPGGKSALRRNNGKDVTDAFFSMHSAMAVRKLPDFLIGELAPPESTSAAGEETPTAALVPARLRMADITKALSEDLNRIILILFSDAYDVTSMRDKHPGGLSVLVNNNGRECGDTFMRIHGLLAKEMVKQFYLGPVEGLAQGRSPLRPAVAAEVESTAITPAGPKAQSTRILEIESVNSTVTIRYFTFSCPKPLYMIPGGHIKLYSNLHEKESRFYTPFKTGVSSFTICMKHYPNGRTSGYLFDLKEGDEVFFDGPLPPSWQLNTDAAVQRAAPEERHVVLVGGGTGIAPLYSMSSNALETQFSSVTLVCSVRTPDDLILATELRQLANRYSTALPIQKHTLRIVLLFSRASPQDISVESTSFASHVLCGGRLTAESFKGTEIHPAQAVVVCGPPTFNDAVAAAVLEAGICTATQVHHL | not soluble
5 | MAHHHHHHMGVDVGESAIGVDAVARPIGYGPFSAAAKARLAREKAHKAVETCDSAAAAASATVMKNVSLDTNLYLRLSLAGLPHPSQLQEWAYTSPEWRLAFVRLYRTILRLHNKAVAVSLRTARRQGSEAALSAATGMRATSQTTVAGAAVAATGADNSLAEDKDDYFLRYLLTPDQQEFGNRFVQEEFARHTDADAVAASIFYASWYEYVLQLASGVTAREMTEKEKRILTDEQKETLNSLRSAFLDLRSSQRPKYMP | not soluble
6 | MAHHHHHHMGVKFIVEHMDDLEEWCILEYMHICEIVKDENIIFTKFKGNFKDISKSHEPKCYEKSIGDLKDEFGWNKICLLDMKAKDVLTCKDKNEIDFLLFGGILGNVPSNDRTSELRKFEFPISRNLGSVQMTTNTAVLVCHIILNDQVELENIPFVDNPDIVLKNNKESMMLPFRFVSKYYYTKCESDKNVPILPKNFKDYLIKLGDQQYNDLDSFF | soluble
7 | MAHHHHHHMHFSQYPLRLTDLERQKLQLIVAALKVSEYTDDVDDFMRPYGKEGRMEAAMREFIDIVVGLAIASDAIPRSVKNSFLAGEVKVATVVPLLEDLFEIMRRHKRLNPFSHRGEFGKLMMMLQDVQKRSLQRALEIQSTLVIPVRTVEAALSSIYCETLVDDEAVRTDYLKRTGAEKQAGMQSLIERYGKGDEHKKEVIEHCLRSIDDVYSFIQSNTRPLRTLRRWLSRDFEPLPSDDVYSISIRHGRSGACFTHSHATHCQYVTESLLLWENVQKNILNLWEAAEDDMLVEGQGQYVVANTGQGFHRMCSAPKSYGVMSRLVRDTEQRMGGWVGIKVIHLGDRDVPNPLVFIDKYTVIPRLVKPVVQTLHALRYVLHEEDEEEEGQPQVAHEYDNYPGLRNLLRSKYHSYSELMMMILSDFFKHAFDGSGDDGGSCIDGRLTSAWNWCHQLHKKKYYDAFVLTGFAGFD | not soluble
8 | MAHHHHHHMHNSVPASNTCSPFREETVSKRGKRSRGTGGDDKITRGTCSQPFSVITLPPGKLLEWLVCSPCRVYDVNLPRSRNNDNNISSLQCAVLPNFFVEYGGRSYSCVAKVCKPQLRKVLLRALAAVRQEMGSVDDIPHDSLLVVAVSPINAFSSECIHDASRTAMPRAREGCKIVGLCVARELSAPHRMHCESNWSHEKSEASGVGAAVQEGLGDCWEEDATRVGGTNNVRKAFCGVQLVWVADCYRRHGVAKVLVDTARRHISYGFEVPVERVAFSEPTSLGKLFAKSYSGRPDFLI | soluble
9 | MAHHHHHHMHRFRVCALGAAFCVARRWRSGGGPGDRRVRTDWYRCYPSLMEEKDRDMYHCYYPYLFDHGDKMSLYPKIPDNPREWQVEQLQTTYDAIREDKYDAFVRLRAKFPELYQDTYAWDNPPPFGEFNMFYSVRFGMIGVKAFTCKDYDDLGNQFDCTAFWFPDNQIVKHSTRNGDVGTDKVYVGAMNVPVEFHKPHVAAFYKAAGVPVKHVSAGFPVTPDAYAPVGTKLDVRHFKPGQEVTITFQNTDYGYQGVMFRHGFDGGYVWLGDSKWQRRPGCMGAEGQKRIYPGHRMAGQTGASAETYDGVPVWRIDYKNSLIYLPTLIDADVGTYVKFRDTINTKGYTLWNEHRGTPPFPTFIPSEEEDLSKLATDEGQLTSPPLYMYFRDEFAAAQLVTQADVEDAKSAKPATAAPKKKVYDLKKYTEARKKYRKNLQKARKYKLMGVRTRAHEKQQEARRAKILKYKRVKT | not soluble
10 | MAHHHHHHMHRGPGKRQTAPKEAAQYQFIKKWDLQMRETWDELEPFKGLPKPKVQFGNEAAEVIWPYALLLENVIKVHPYTKSIYVYYSQRQSTPLGELAARVAKRVSQAYLIPITFHNSHVYVEAEMLLEYSETPWVVVHCLDGTHKLIPVKPQAGQTVKEGAEEVLNGIVSACNEIGSAVKNPKEVMRLLSERPLQNQYVRVNYQWYGDTPEERMSHLVKWDYEPEEVVPQLRNRTQHVLDWMNYDGNLPTHNSVRVNIHREAARMRKPNVSAGPKTFFNSSGSRANARTARFDNSRSSQS | not soluble
11 | MAHHHHHHMHTYTTQPCATSTSVPQLTRLSVSSSGHSPAVPTNWSIGRPTTLRCRDTDSDVHCNWGAIQGEDEEDKESLIGCATQVWRISAEVQMPLQCSHGTRATEEETLLGAPTSHCGDHLTNGRGVFASSPPIVWQPAPLPASFSASQIDLSGGGQDNAVLLSGAPVGSAEEETHNDNREVTRSNVIPATGDIAATESNDSFVGLEAAPRKGYARSNSGTPPRSDLGSPNNAANLQAHGRAANGVSAGVELVYRAAASETNSHHFGASLCANIGSGCRARLGIPAEWRDHMCAATPQGRGVWVQVPGQLRESEYPASTTTAEAVAARLAHISIHTSPTPKRLAFEEEELVERVSGGGSPTLIPAVRFVADGAARRGACNEASVAQGAGGSTEVGLLGRGAGGLSSSGMRWASVFGDSGHLELCSSRIPSGLQLLRSRKRCLDEMQATDTQERHADTLVTGGISDARDASYLVPDRVARMSLATPFENLEEDGDGDEEAVKRQRREEQRRMRLQHLLPASPNTMDDLIPAPARALGTAVAPCSSVSSSHVRSTVHGIQSTQDQQHQQDRTRNDDPASWSQVSSISYVTPASQSTSMGLWGVPGTLSQGHHGGAVVCSVGSGSQLLTPLPTNVMPQPSHKP | not soluble
12 | MAHHHHHHMIAAIKTPAFQERVRAAMSREPTPADAEAVMKRYEEVQADYFTNHYNAEAGGICSSASAGAESRGTGGAGGRAKSSQDASEALAQQVDDMNLQEASDAPKLDGVEIVEQLKNAVRVYKEKETVRLITELCLLIESQVTALPATVPALRHLYSNSVYGSSAMEHAQAASAQAGGGESVLPVAQPSPQVMSMMGMAMRTLNPRQRETLERVQRAMMNGSPPLPEDMQDMLLIQRQLGAFMQTMQRFGQMPSGRGCGSGGRGGCGGQGGQ | soluble
13 | MAHHHHHHMIDEKSKMYSKNDEFNVKKEMDMNLKCDNVNLDIWNTSFLNNETLNEDIFIHIGNKLLKMYYTTNHNIPSETLYSLLYEMKNGYNNVPYHNSIHAAMVTHHCNVLVSNLNTANILRDNELGALFVASLGHDIGHFGRTNIFLKNCCNFLSIIYNDKSILENYHCSYLFNILLKDENNIFKNEDPKCLLALRQQIIELILATDMSKHIKILAQFRIKSIKIKSYIEKNIILCLKMIIKAADLSHNCVDWSEHYQWVKRLVNEFYYEGDELFQMGYKINPLFDRNCHNNFIQIQRTFLKELVYPLIISLKTLDNTSITQDMINNVKRNYSKWTKIEKCQIKKKKYLNELLCNIPDNWARVYYPNLNIY | not soluble
14 | MAHHHHHHMIEDNIDENCQIYLNPKNWLKEFENTKINENDINEVLMNYFCVHRMYDVAKEFQKESNVKPDMPINTVKIRYLIQNEIMNNKIEEAIEHINNLDKGILKKHKDLVFFLKKQQLLKLILNNNINEAIIYSQQELASYVKEKPSLINEIDDVMMLMAYQDFNNEEAKNLIQKIEKKKNTLKRIDDIILNYYNVDSESTLEYMVKNVFFTQNVLSSKYPCSVPKIKNLKSGYIEYYEKYKKKKRKSSSKKYRSKDKDKVDKHDKKNVDNIVKDFDVTNDEEYRSV | not soluble
15 | MAHHHHHHMIGSFRIIRLPRTASSLRSLNGGQRSPHDDVVCGRQPQGLEGGRKGESVDGGIRPSFTRVGQLTDTYRTRRAGWLCQRDDRWTERRPFQPAGIFLEGGEEAGRVDLRLTDMQRIYDVGPISAENERFAASTLLYATDEVRSLLVEKEWIKLYCLHGVAAADDECNIAFVDLTEKLEDVKRVLVAWKEKDA | not soluble
16 | MAHHHHHHMILKEETVLRKTNAENLAAVRNLNLWGEGLTDVSIVSRLPRIEVLALAANKLTTLSPFAACTQLEELYLRRNNVASMLEIKYLRHLPKLHTLWLMDNPCARHPHYRQIVILCCRHLRHLDETEVSEKERAEAEKLLPEGMLQEMLESESAEAAVGTANKAQLQNRTPVSERKQPMGEVVQGGAIHETGAGRERGHRVTSSDTSGRGPSSAPERRQGSADDGLAQTAVQVQRAMFSSIMALVPELAVQTIEALQKELAEELCRRGKRLPPVVRDRT | not soluble
17 | MAHHHHHHMKATKAKSGNTATNAVPFNNAPLKIVFLDCDGVVSPFGGPLFAPRQMKFLADIINGSGAQIVLSSSWRTTDFGRKEVARQLTQFGMPVFIDCTPTLPDKPRSVEILSWIDSNKRKYNIVNFVALDDINLPLSAPDRNFFARHAIVTNATTGLTEANVKQALQMLSDTNNI | soluble
18 | MAHHHHHHMKCELASLIKENAQLGREMRGTPQLRVPQETDVAWRLRRDVLLHSEYPHVAACPEKDVERKDGRAVVVFQESKLQGEPPERTAAQKRSRSDHTAVVSVDPSVLKARASSLGERIVGAAGPSFEPYTAPPSWKMAKVLVGHRGWVWGAAVDPSNSWFATGGGDGVVKVWDLTTGALKLNLTGHKEGVRALSLSTLSPYMFTGSDDHSVKCWDLERNEIIRDFHGHKGSVHCVSTHPSLDIVLSGGRDKTVRVWDVRTRSCVHLLLGHSDSVMSLAVQQEDPQAISGGSDGMVYLWDIASGRAFTRLTRHKKPVRGLALSRQRVLVSCGADNIRVWSLPTGEFLFNASTLDNGKETKKEKEQEPQRWSCCSVSPRNVLAVGSQEGRLLFFDWSHPQQGPYQATKTRSVPGTLPGEGGINGLAFDASGSRLITAESDKSAKVWRTKE | not soluble
